Source: paper doi:10.1101/2021.01.08.425619 (bioRxiv, 2021)
Like-named read-outs stand apart in the source and are kept apart here.

B1: Drosophila melanogaster LC8 (residues 1-89), co-expressed with Panx peptides (natural protein)
chain: MSDRKAVIKNADMSEEMQQDAVDCATQALEKYNIEKDIAAYIKKEFDKKYNPTWHCIVGRNFGSYVTHETRHFIYFYLGQVAILLFKSG
B2: recombinant SFiNX consisting of Panx[263-541], Nxf2[541-841], Nxt1, and LC8 (complex)
chain 1: ASSQNESSKERKLRDTELDYVPVRPDEHFIRPIKFSNLIERRPPQVEFNTVNLSKADKRSLAVARAELVLEQIQQKANKEEPPEFHMVDTICKLPVNESFRNQDCFENPSPICNNMNVVYKFNSTPGTRIDLSKWGLETVPEATKRLLRLLGIDVARLKELQSTVKPSQRILKLKKEQLEQGLAPTEEQETATLYKNAATQTERRTATRDAGTQVRLESKLNGAFWQNPHFDPMNLTQHQSNVMLALQEIYQTLPSATMAVKLSRALAPALAIIKGRQP
chain 2: LPSEYVRAVKEVFPQLTTLDGVDLQTNPGQSLQKNFLCDTGAYELVGAFLENYLREFENDEFRHNLYKYYSENSIFTLTCNYNVVQNHQTPKILQRLSKYNRHARNLRNKDYSKASDGVFFGCTYIVEILLQLPRVTHDFHSLQTDVMHYNGKGAVIYVAGLLRDEPPSTRNGHGSKTDIGGVLLGFSRQFVVTFDEANLGLGKRARRLKIANERLHITNPSKTAIRNAFSVNFPDPSERQAEEDSLDVKDHKLLLFQEVTGLISTWVTSIVEEADWDFERALKLFIQKNADHEIPDLAFA
chain 3: […]
chain 4: B1 chain
B3: His6-LC8, subunit of recombinant SFiNX (natural protein)
chain: B1 chain
B4: Panx[263-541], subunit of recombinant SFiNX (domain or fragment)
chain: B2 chain 1
B5: Nxf2[541-841], subunit of recombinant SFiNX (domain or fragment)
chain: B2 chain 2

Legend:
[1] = target: Drosophila melanogaster LC8 (residues 1-89), expressed in isolation for ITC (Drosophila melanogaster, UniProt Q24117 1-89); test: ITC
[2] = target: B1; test: SEC-MALS
SEC-MALS [3] = target: the molecule itself; test: SEC-MALS
SEC-MALS [4] = target: the molecule itself; test: SEC-MALS; remark: listed apart in the source
[5] = target: B4; test: SEC-MALS
[6] = target: B5; test: SEC-MALS
[7] = target: Nxt1, subunit of recombinant SFiNX (Drosophila, UniProt Q9V3H8 1-133); test: SEC-MALS

TLYKNAATQTER [Panx peptide residues 455-466 (Panx1), LC8 binding site #1]
Kd [1]: ~75 nM | stoichiometry N [2]: 2 Panx peptides per one LC8 homodimer

RTATRDAGTQVRLE [Panx peptide residues 467-480 (Panx2), LC8 binding site #2]
Kd [1]: ~140 nM | stoichiometry N [2]: 2 Panx peptides per one LC8 homodimer

TLYKNAATQTERRTATRDAGTQVRLE [Panx peptide residues 455-480 (Panx1+2), both LC8 binding sites]
stoichiometry N [2]: 2 Panx peptides per two LC8 homodimers

B1
stoichiometry N (SEC-MALS [3]): 2

B2
stoichiometry N (SEC-MALS [4]): 2

B3
binding result [5]: binds

B4
binding result [6]: binds

B5
binding result [7]: binds
